According to publication PMC5300068:
Blank lines part the entries; values can stand above or below the substance they belong to.

Columns and labels:
Assay in all cases: AUC; sedimentation velocity, 50,000 rpm, absorbance optics, c(s) analysis; physiological ionic strength, buffers with Ca2+ or EDTA; 0.8-2.2 uM for full-length MASPs; dimer to monomers
[1] = target: activated full-length rat MASP-1 (rat)
[2] = target: activated full-length rat MASP-2 (rat)
[3] = target: full-length rat MASP-1 zymogen (rat) (UniProt Q8CHN8)
[4] = target: full-length rat MASP-2 zymogen (rat) (UniProt Q9JJS8)
[5] = target: rat MASP-1 CUB1-EGF-CUB2 (MASP-1 3D) (rat) (UniProt Q8CHN8)

Kd [3]: < 0.01 µM | stoichiometry N [3]: 2
Substance: full-length rat MASP-1 zymogen (from UniProt Q8CHN8 25-704) (enzyme)

Kd [4]: < 0.01 µM | stoichiometry N [4]: 2
Substance: full-length rat MASP-2 zymogen (from UniProt Q9JJS8 20-685) (enzyme)

Continued, substance first:

Substance: activated full-length rat MASP-1 (enzyme)
Kd [1]: < 0.01 µM | stoichiometry N [1]: 2

Substance: activated full-length rat MASP-2 (enzyme)
Kd [2]: < 0.01 µM | stoichiometry N [2]: 2

Substance: rat MASP-1 CUB1-EGF-CUB2 (MASP-1 3D) (from UniProt Q8CHN8 61-301) (domain or fragment)
stoichiometry N [5]: 2
